Results as given in article PMC3815138, “Dynamic Interplay between the Periplasmic and Transmembrane Domains of GspL and GspM in the Type II Secretion System” (PLoS ONE, 2013).

What was measured:
GST-OutC = target: T1, GST-OutC (Dickeya dadantii, UniProt Q01564 1-272); assay: pull-down; GST-Out derivatives immobilized on Glutathione Sepharose as baits; His-OutC purified by nickel affinity as prey, incubated 1 h; 1% Triton X-100, 15°C; five washes; immunoblot; conditions: both partners purified
T1 construct: OutC (GspC), type II secretion system of Dickeya dadantii; also called full-length OutC carrying a GST-tag; source: E. coli BL21(DE3), pGEX-6P-3 plasmid; immobilized on Glutathione Sepharose

GST-OutL = target: T2, GST-OutL (Dickeya dadantii, UniProt E0SLF6 1-400); assay: as above; conditions: both partners purified
T2 construct: OutL (GspL), type II secretion system of Dickeya dadantii; also called full-length OutL carrying a GST-tag; source: E. coli BL21(DE3), pGEX-6P-3 plasmid; immobilized on Glutathione Sepharose
T2 sequence: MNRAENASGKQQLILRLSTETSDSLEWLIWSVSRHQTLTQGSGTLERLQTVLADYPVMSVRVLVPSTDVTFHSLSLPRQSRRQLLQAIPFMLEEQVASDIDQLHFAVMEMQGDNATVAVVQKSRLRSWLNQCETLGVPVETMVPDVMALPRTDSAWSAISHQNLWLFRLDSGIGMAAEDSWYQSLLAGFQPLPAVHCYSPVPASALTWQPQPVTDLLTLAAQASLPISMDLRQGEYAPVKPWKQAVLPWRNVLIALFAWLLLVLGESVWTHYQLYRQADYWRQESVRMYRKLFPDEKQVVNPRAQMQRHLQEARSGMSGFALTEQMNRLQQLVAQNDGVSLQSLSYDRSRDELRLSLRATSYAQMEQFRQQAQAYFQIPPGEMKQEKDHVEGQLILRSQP

B1: His-OutC (natural protein)
chain: not shown
notes: OutC (GspC), bitopic inner membrane component of the type II secretion system of Dickeya dadantii; also called GspC; full-length OutC; source: E. coli BL21(DE3), pET20b(+) plasmid
binding result (GST-OutC): binds | binding result (GST-OutL): binds
